This passage reports screen value (relative to wild-type phyB Pr = 1) results from PMC2621353, “Residues Clustered in the Light-Sensing Knot of Phytochrome B are Necessary for Conformer-Specific Binding to Signaling Partner PIF3” (PLoS Genetics, 2009).

Sequences and labels used below:
B1: full-length phytochrome B (phyB), wild type, in vitro translated [modified: 35S-methionine labelled; 35S-methionine labelled] [Arabidopsis thaliana] / GAD-PIF3, in vitro translated [modified: 35S-methionine labelled … (parent)
chain 1: MVSGVGGSGGGRGGGRGGEEEPSSSHTPNNRRGGEQAQSSGTKSLRPRSNTESMSKAIQQYTVDARLHAVFEQSGESGKSFDYSQSLKTTTYGSSVPEQQITAYLSRIQRGGYIQPFGCMIAVDESSFRIIGYSENAREMLGIMPQSVPTLEKPEILAMGTDVRSLFTSSSSILLERAFVAREITLLNPVWIHSKNTGKPFYAILHRIDVGVVIDLEPARTEDPALSIAGAVQSQKLAVRAISQLQALPGGDIKLLCDTVVESVRDLTGYDRVMVYKFHEDEHGEVVAESKRDDLEPYIGLHYPATDIPQASRFLFKQNRVRMIVDCNATPVLVVQDDRLTQSMCLVGSTLRAPHGCHSQYMANMGSIASLAMAVIINGNEDDGSNVASGRSSMRLWGLVVCHHTSSRCIPFPLRYACEFLMQAFGLQLNMELQLALQMSEKRVLRTQTLLCDMLLRDSPAGIVTQSPSIMDLVKCDGAAFLYHGKYYPLGVAPSEVQIKDVVEWLLANHADSTGLSTDSLGDAGYPGAAALGDAVCGMAVAYITKRDFLFWFRSHTAKEIKWGGAKHHPEDKDDGQRMHPRSSFQAFLEVVKSRSQPWETAEMDAIHSLQLILRDSFKESEAAMNSKVVDGVVQPCRDMAGEQGIDELGAVAREMVRLIETATVPIFAVDAGGCINGWNAKIAELTGLSVEEAMGKSLVSDLIYKENEATVNKLLSRALRGDEEKNVEVKLKTFSPELQGKAVFVVVNACSSKDYLNNIVGVCFVGQDVTSQKIVMDKFINIQGDYKAIVHSPNPLIPPIFAADENTCCLEWNMAMEKLTGWSRSEVIGKMIVGEVFGSCCMLKGPDALTKFMIVLHNAIGGQDTDKFPFPFFDRNGKFVQALLTANKRVSLEGKVIGAFCFLQIPSPELQQALAVQRRQDTECFTKAKELAYICQVIKNPLSGMRFANSLLEATDLNEDQKQLLETSVSCEKQISRIVGDMDLESIEDGSFVLKREEFFLGSVINAIVSQAMFLLRDRGLQLIRDIPEEIKSIEVFGDQIRIQQLLAEFLLSIIRYAPSQEWVEIHLSQLSKQMADGFAAIRTEFRMACPGEGLPPELVRDMFHSSRWTSPEGLGLSVCRKILKLMNGEVQYIRESERSYFLIILELPVPRKRPLSTASGSGDMMLMMPY
chain 2: MPLFELFRLTKAKLESAQDRNPSPPVDEVVELVWENGQISTQSQSSRSRNIPPPQANSSRAREIGNGSKTTMVDEIPMSVPSLMTGLSQDDDFVPWLNHHPSLDGYCSDFLRDVSSPVTVNEQESDMAVNQTAFPLFQRRKDGNESAPAASSSQYNGFQSHSLYGSDRARDLPSQQTNPDRFTQTQEPLITSNKPSLVNFSHFLRPATFAKTTNNNLHDTKEKSPQSPPNVFQTRVLGAKDSEDKVLNESVASATPKDNQKACLISEDSCRKDQESEKAVVCSSVGSGNSLDGPSESPSLSLKRKHSNIQDIDCHSEDVEEESGDGRKEAGPSRTGLGSKRSRSAEVHNLSERRRRDRINEKMRALQELIPNCNKVDKASMLDEAIEYLKSLQLQVQIMSMASGYYLPPAVMFPPGMGHYPAAAAAMAMGMGMPYAMGLPDLSRGGSSVNHGPQFQVSGMQQQPVAMGIPRVSGGGIFAGSSTIGNGSTRDLSGSKDQTTTNNNSNLKPIKRKQGSSDQFCGSS

In this assay the parent is B1. As to the kind of experiment: in vitro co-immunoprecipitation. To be noted: with GAD-PIF3, in vitro translated [modified: 35S-methionine labelled, GAD-PIF3 as bait, phyB as prey, 35S-met in vitro translated proteins.
Where [1] appears, read: phyB in Pfr form, parent: 17, read off a plot.
Where [2] appears, read: phyB in Pr form, parent: 1, read off a plot.
The mark [3] stands for this setting: phyB in Pfr form, parent: 3.8, read off a plot.
Setting [4] is: phyB in Pfr form, parent: 13, read off a plot.
[5] abbreviates: phyB in Pfr form, parent: 9.1, read off a plot.

For chain 1 I308T, the screen value (relative to wild-type phyB Pr = 1) under setting [1] came out at 2.3 and the screen value (relative to wild-type phyB Pr = 1) under setting [2] was determined as 1.
For the variant chain 1 C119Y, the screen value (relative to wild-type phyB Pr = 1) stood at 0.9 under setting [3] and 0.45 under setting [2].
For chain 1 R415W the same measures were 0.58 and 0.45.
On to chain 1 S343Y, for which the screen value (relative to wild-type phyB Pr = 1) under setting [4] came out at 1.7 and the screen value (relative to wild-type phyB Pr = 1) under setting [2] is 1.4.
With chain 1 S134G, the screen value (relative to wild-type phyB Pr = 1) under setting [5] was determined as 3.1 and the screen value (relative to wild-type phyB Pr = 1) under setting [2] is 1.6.
As for chain 1 P411L, the screen value (relative to wild-type phyB Pr = 1) came to 4.1 under setting [5] and 1 under setting [2].
Regarding chain 1 L256C, the screen value (relative to wild-type phyB Pr = 1) reads like this: under setting [4], 2.8; under setting [2], 1.
In the case of chain 1 S367P, the screen value (relative to wild-type phyB Pr = 1) by setting is: under setting [1], 4.8; under setting [2], 2.4.
For the variant chain 1 G348D, the screen value (relative to wild-type phyB Pr = 1) reads like this: under setting [4], 2.6; under setting [2], 1.
Consider chain 1 V273L, for which the screen value (relative to wild-type phyB Pr = 1) is, setting by setting: under setting [1], 3.9; under setting [2], 2.
For chain 1 C345R the same measures were 5.1 and 2.
As to chain 1 V264E, the screen value (relative to wild-type phyB Pr = 1) turned out to be 1.9 under setting [4] and 2 under setting [2].
